The target of experiment [1] is T1, FR3exFc (human).
T1 construct: also called FGFR3/Fc; FR3/Fc
As to the kind of experiment: BIACORE. The method, then: (§1) The affinity measurements were performed by BIACORE® analysis according to the standard procedure recommended by the supplier (Pharmacia). The anti-Fc antibody was coupled via the EDC/NHS chemistry to the chip and subsequently FGFR3 was captured. The Fabs of the invention were then bound to this surface.
On the technique in general: In SPR one partner is held on a chip, and binding of the other changes the refractive index at the surface.

The target in experiment [2] is T1, FR3exFc. The experiment in a line: BIACORE, FGFR3 captured on an anti-Fc chip. The method, then: as §1
Experiment [3] concerns the target T2, FGFR3 (wild type) on cells (human, UniProt P22607 23-806).
T2 construct: also called FDCP-FR3; FDCP-FGFR3
The experiment in a line: indirect FACS-Scatchard.

The target in experiment [4] is T2, FGFR3 (wild type) on cells. The experiment in a line: cell-based or functional assay.
For experiment [5], the target named is T1, FR3exFc. The experiment in a line: BIAcore; number in parentheses taken as the monomeric Fab. The method, then:
as §1

Experiment [6] deals with T2, FGFR3 (wild type) on cells. As to the kind of experiment: cell-based or functional assay. The source holds these as a separate data set.
The target of experiment [7] is T1, FR3exFc. The experiment in a line: BIACORE, FGFR3 captured on an anti-Fc chip. The method, then:
as §1
This is another data set of the same source.

Experiment [8] has as its target T3, FR1exFc (UniProt P11362 22-376, limits assumed).
T3 construct: extracellular domain; also called FGFR1/Fc; FR1/Fc; not shown: Fc part; the construct of FR1exFc is not described
T3 sequence (looked up): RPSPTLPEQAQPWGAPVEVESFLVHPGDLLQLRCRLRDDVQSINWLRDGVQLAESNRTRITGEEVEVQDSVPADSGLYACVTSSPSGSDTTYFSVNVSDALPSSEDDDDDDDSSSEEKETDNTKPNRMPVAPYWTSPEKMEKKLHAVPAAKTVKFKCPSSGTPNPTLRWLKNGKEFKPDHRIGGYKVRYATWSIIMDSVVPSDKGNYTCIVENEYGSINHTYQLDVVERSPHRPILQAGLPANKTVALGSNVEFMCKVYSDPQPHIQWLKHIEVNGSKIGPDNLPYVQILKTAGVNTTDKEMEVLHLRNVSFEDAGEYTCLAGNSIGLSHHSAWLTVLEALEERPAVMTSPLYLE
The experiment in a line: Affinity to FGFR1 (BIACORE and/or FACS).

The next experiment has as its target T4, hFR3^D2Fc (human, UniProt P22607 143-250).
T4 construct: Only domain 2 of the entry stood in the assay; also called product of pChFR3^D2Fc; not shown: human Fc
T4 sequence: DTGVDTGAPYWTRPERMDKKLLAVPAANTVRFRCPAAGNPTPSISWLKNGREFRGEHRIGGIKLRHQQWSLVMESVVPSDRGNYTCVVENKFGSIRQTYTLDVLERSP
As to the kind of experiment: ELISA, Fc fusion anchored on an anti-human Fc coated plate, bound Fab detected with HRP anti-human Fab. The source says: Constructs comprising cDNAs that code for segments of the extracellular domain of FGFR3 were generated (FIG. 10). D2 comprises Ig domain 2, D2-3 comprises Ig domains 2 and 3, and D1-3 comprises Ig domains 1, 2 and 3. These constructs include pChFR3^D2Fc that codes for Ig-like domain 2 of FGFR3 and pChFR3^{D2,3}Fc that codes for domain 2 and 3, both as human Fc fusions. The corresponding chimeric proteins, as well as the control hFR3exFc (containing domains 1, 2 and 3) were anchored to an ELISA plate coated with a human Fc antibody. A panel of 8 best Fabs, MSPRO2, 11, 12, 21, 24, 26, 28 and 29, were added, and bound Fab was determined with HRP-α human Fab (FIG. 11). […] Both bind to the Ig like domain 2 while the others require domain 3 for binding. It was then tested whether or not Fabs that belong to the second group would distinguish the FGFR3IIIc isoform from the FGFRIIIb from. FDCP-FR3IIIb or FDCP-FR3IIIc cells were incubated in the presence of 1.25 ng/ml FGF9 with increasing doses of either MSPRO12 or MSPRO29. Ly6.3 was included as control. After 2 days in culture, cell proliferation was measured with the XTT reagent. Clearly, MSPRO29 (open triangle) was completely ineffective against the IIIb isoform (FIG. 12).
A general note: An ELISA detects its analyte on a solid surface through an enzyme-linked reagent.

Experiment [9] has as its target T2, FGFR3 (wild type) on cells. The experiment in a line: FACS. On the technique in general: In flow cytometry, cells or beads pass a laser one at a time.
Experiment [10] has as its target T3, FR1exFc. The experiment in a line: ELISA, FGFR/Fc captured on anti-human Fc coated plate, detection with anti-human Fab-HRP.
Experiment [11] deals with T1, FR3exFc. As to the kind of experiment: BIAcore, Fab-dHLX-MH miniantibody.
Experiment [12] deals with T1, FR3exFc. The experiment in a line: BIAcore, Fab-dHLX-MH miniantibody; Fab-dHLX-MH miniantibody (dimer).
Experiment [13] deals with T2, FGFR3 (wild type) on cells. As to the kind of experiment: cell-based or functional assay. The source holds these as a separate data set.
Experiment [14] addresses T1, FR3exFc. As to the kind of experiment: BIAcore; number in parentheses taken as the monomeric Fab; monomeric Fab, not miniantibody.
Experiment [15] deals with T2, FGFR3 (wild type) on cells. As to the kind of experiment: indirect FACS-Scatchard; indirect FACS-Scatchard, Table 5 (Table 1C gives 1.1 nM).
For experiment [16], the target named is T1, FR3exFc. As to the kind of experiment: BIAcore; number in parentheses taken as the monomeric Fab; monomeric Fab, value in parentheses of Table 1E (Tables 1C and 5 give 9 nM).
The target of experiment [17] is T1, FR3exFc. The experiment in a line: ELISA, FGFR3/Fc anchored on anti-human Fc coated wells, about 5 µg Fab per well (labelled with cold iodine at 0.04 mM NaI), detection with anti-human Fab; parallel wells without FR3/Fc. The method, then: To determine the effect of iodination on Fab activity, 50 μg of MSPRO29 was first labeled with cold iodine using Pierce IodoGen coated tubes. The process was carried out either without iodine, with 0.04 mM NaI (low I) or with 1 mM NaI (high I). MSPRO29 was then purified through a SEPHADEX® G-50 column. The ability of the modified Fab to bind FGFR3 was determined by ELISA. MAXISORP® wells were coated with anti-human Fc. FGFR3/Fc was then anchored to the wells. In parallel, a similar set of wells was left in blocking buffer only (no FR3/Fc, hatched bars). The unmodified (no I) or the modified MSPRO29 (low or high, 2 G-50 fractions each, 1 and 2) were added at approximately 5 μg/well and binding was measured with anti-human Fab. Fresh MSPRO29 and buffer alone were included as controls (FIG. 14: FGFR3/Fc, checkered bars; no FGFR3/Fc, hatched bars). MS-PRO29 was labeled with 1 mCi ¹²⁵I. The specific activity of the Fab was 17 μCi/μg.

T1 sequence (chain, as listed by the source limits assumed): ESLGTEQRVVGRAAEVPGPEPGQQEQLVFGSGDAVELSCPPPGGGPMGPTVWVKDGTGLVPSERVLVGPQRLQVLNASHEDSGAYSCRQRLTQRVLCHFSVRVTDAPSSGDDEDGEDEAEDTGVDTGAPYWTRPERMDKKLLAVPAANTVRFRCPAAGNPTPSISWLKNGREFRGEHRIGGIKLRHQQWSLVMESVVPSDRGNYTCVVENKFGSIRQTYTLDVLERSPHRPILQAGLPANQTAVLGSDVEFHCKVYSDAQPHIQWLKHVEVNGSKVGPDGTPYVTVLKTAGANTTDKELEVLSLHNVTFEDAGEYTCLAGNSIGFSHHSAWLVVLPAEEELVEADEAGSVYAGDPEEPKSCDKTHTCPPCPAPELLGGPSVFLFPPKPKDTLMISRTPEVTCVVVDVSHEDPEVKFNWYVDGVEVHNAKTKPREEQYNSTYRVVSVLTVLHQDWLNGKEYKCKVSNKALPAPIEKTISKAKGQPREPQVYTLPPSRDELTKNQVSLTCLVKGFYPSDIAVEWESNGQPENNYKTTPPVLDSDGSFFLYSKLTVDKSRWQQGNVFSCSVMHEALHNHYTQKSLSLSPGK
T2 sequence (P22607 23-806 limits assumed): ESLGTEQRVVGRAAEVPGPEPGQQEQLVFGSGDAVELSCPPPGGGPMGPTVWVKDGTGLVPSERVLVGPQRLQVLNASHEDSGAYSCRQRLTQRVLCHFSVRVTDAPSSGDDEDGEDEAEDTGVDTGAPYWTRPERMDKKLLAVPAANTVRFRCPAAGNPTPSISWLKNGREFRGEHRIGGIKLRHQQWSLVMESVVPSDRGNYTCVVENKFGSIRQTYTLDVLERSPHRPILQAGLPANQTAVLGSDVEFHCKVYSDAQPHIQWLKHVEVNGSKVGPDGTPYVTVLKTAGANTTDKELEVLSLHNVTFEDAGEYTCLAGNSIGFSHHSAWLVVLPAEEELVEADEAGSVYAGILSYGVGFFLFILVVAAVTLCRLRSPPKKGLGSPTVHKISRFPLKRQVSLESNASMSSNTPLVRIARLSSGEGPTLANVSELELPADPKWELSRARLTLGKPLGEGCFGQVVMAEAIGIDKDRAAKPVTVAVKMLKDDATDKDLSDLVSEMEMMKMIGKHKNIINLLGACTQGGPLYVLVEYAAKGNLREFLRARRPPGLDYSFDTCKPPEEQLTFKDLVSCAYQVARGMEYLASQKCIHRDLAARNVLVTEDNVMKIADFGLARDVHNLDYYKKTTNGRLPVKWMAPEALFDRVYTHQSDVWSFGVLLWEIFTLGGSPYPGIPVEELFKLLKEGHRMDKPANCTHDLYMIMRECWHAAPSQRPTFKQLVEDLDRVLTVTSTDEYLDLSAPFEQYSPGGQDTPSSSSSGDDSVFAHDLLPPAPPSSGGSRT

B1: MSPRO26 (Fab, V domains shown)
VH: QVQLVQSGAEVKKPGASVKVSCKASGYTFTSYYMHWVRQAPGQGLEWMGWINPNSGGTNYAQKFQGRVTMTRDTSISTAYMELSSLRSEDTAVYYCARGYWYAYFTYINYGYFDNWGQGTLVTVSS
VL: DIALTQPASVSGSPGQSITISCTGTSSDVGGYNYVSWYQQHPGKAPKLMIYDVSNRPSGVSNRFSGSKSGNTASLTISGLQAEDEADYYCQSYDNNSDVVFGGGTKLTVLG
The koff is a measure of how fast the partners let go of each other. Read a high koff as fast dissociation. In general, Kd refers to the free concentration of one partner at which half of the binding sites on the other are occupied at equilibrium, for simple one-to-one binding. In turn, B1 had a koff in the experiment with FR3exFc [1] of 0.0005 s⁻¹. Moreover, the Kd with FR3exFc [2] was 0.004 µM; in experiment [3], 0.0014 µM; with FR3exFc [5], 0.004 µM; with FR3exFc [7], 0.004 µM; in the experiment with FR1exFc [8] it was 0.032 µM; in experiment [9], 0.0014 µM. The “IC50 FR3 (FGF9), FDCP-FGFR3 proliferation assay” value (shortened to “IC50 FR3 (FGF9)”) in [4] came to 0.07 µM. In [6], the “IC50, FDCP-FGFR3 proliferation assay with FGF9, monomeric Fab (in parentheses)” value (“IC50 … (in parentheses)” below) turned out to be 0.07 µM. Further, the binding result with hFR3^D2Fc is “no binding”.

B2: MS-Pro-12-dHLX-MH (Fab, V domains shown)
VH: QVQLKESGPALVKPTQTLTLTCTFSGFSLSTSGVGVGWIRQPPGKALEWLALIDWDDDKYYSTSLKTRLTISKDTSKNQVVLTMTNMDPVDTATYYCARYHSWYEMGYYGSTVGYMFDYWGQGTLVTVSS
VL: DIELTQPPSVSVAPGQTARISCSGDALGDKYASWYQQKPGQAPVLVIYDDSDRPSGIPERFSGSNSGNTATLTISGTQAEDEADYYCQSYDFDFAVFGGGTKLTVLG
notes: Fab mini-antibody format Fab-dHLX-MH, a dimer of the Fab monomer; also called MSPRO12 dimeric dHLX format; Fab-dHLX
In the case of B2, the binding result with FR1exFc [10] is recorded as “no binding”. In addition, the “IC50, FDCP-FGFR3 proliferation assay with FGF9, dimeric dHLX format” value (“IC50 … dimeric dHLX format” for short) in [6] worked out at 0.026 µM. The same molecule registered a Kd with FR3exFc [11] of 0.0012 µM.

B3: MS-Pro-2-dHLX-MH (Fab, V domains shown)
VH: QVQLVQSGAEVKKPGASVKVSCKASGYTFTSYYMHWVRQAPGQGLEWMGWINPNSGGTNYAQKFQGRVTMTRDTSISTAYMELSSLRSEDTAVYYCARDFLGYEFDYWGQGTLVTVSS
VL: DIELTQPPSVSVAPGQTARISCSGDALGDKYASWYQQKPGQAPVLVIYDDSDRPSGIPERFSGSNSGNTATLTISGTQAEDEADYYCQSYDYSADYVFGGGTKLTVLG
notes: Fab mini-antibody format Fab-dHLX-MH, a dimer of the Fab monomer made as a fusion protein; also called MSPRO2 dimeric dHLX format; Fab-dHLX
Regarding B3, the binding result with FR1exFc [10] is “no binding”. In experiment [6], the “IC50 … dimeric dHLX format” value was found to be 0.061 µM. This molecule came in with a Kd with FR3exFc [12] of 0.0043 µM.

B4: MSPRO2 (Fab, V domains shown)
VH: B3 VH
VL: B3 VL
B4: the koff with FR3exFc [1] came out at 0.02 s⁻¹. Besides, the Kd with FR3exFc [2] stood at 0.037 µM; in experiment [3], 0.043 µM; in the experiment with FR3exFc [7], 0.037 µM; with FR3exFc [14], 0.037 µM; in [9], 0.043 µM. In [4], the “IC50 FR3 (FGF9)” value worked out at 0.36 µM. Moreover, in experiment [6], the “IC50 … (in parentheses)” value is 0.36 µM. The “IC50 of inhibition of FDCP-FR3 proliferation with FGF9 (XTT)” value in experiment [13] is approximately 1 mg/L.

B5: MS-Pro-21-dHLX-MH (Fab, V domains shown)
VH: QVQLVQSGAEVKKPGSSVKVSCKASGGTFSSYAISWVRQAPGQGLEWMGGIIPIFGTANYAQKFQGRVTITADESTSTAYMELSSLRSEDTAVYYCARDNWFKPFSDVWGQGTLVTVSS
VL: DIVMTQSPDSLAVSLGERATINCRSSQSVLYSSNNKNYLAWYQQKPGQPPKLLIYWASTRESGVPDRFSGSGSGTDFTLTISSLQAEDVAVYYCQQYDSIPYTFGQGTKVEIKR
notes: Fab mini-antibody format Fab-dHLX-MH, a dimer of the Fab monomer; also called MSPRO21 dimeric dHLX format; Fab-dHLX
On to B5, for which, in experiment [6], the “IC50 … dimeric dHLX format” value turned out to be 0.02 µM. Also, the equilibrium dissociation constant (Kd) with FR3exFc [12] is 0.0022 µM.

B6: MSPRO21 (Fab, V domains shown)
VH: B5 VH
VL: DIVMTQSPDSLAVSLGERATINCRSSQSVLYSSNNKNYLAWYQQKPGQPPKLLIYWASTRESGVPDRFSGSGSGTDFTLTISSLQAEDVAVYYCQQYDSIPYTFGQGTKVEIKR
B6 registered a koff with FR3exFc [1] of 0.0036 s⁻¹. Also, the Kd in the experiment with FR3exFc [2] is 0.009 µM; in the experiment with FR3exFc [7] it was 0.009 µM; in experiment [15] it was 0.0006 µM; in the experiment with FR3exFc [16], 0.0041 µM; in experiment [9], 0.0011 µM. Further, the “IC50 FR3 (FGF9)” value in experiment [4] stood at 0.05 µM. Also, the “IC50 … (in parentheses)” value in experiment [6] was 0.05 µM. For the same molecule, in the experiment with hFR3^D2Fc, the binding result is recorded as “no binding”.

B7: MSPRO29 (Fab, V domains shown)
VH: QVQLVQSGAEVKKPGASVKVSCKASGYTFTSYYMHWVRQAPGQGLEWMGWINPNSGGTNYAQKFQGRVTMTRDTSISTAYMELSSLRSEDTAVYYCARTWQYSYFYYLDGGYYFDIWGQGTLVTVSS
VL: DIVLTQSPATLSLSPGERATLSCRASQSVSSSYLAWYQQKPGQAPRLLIYGASSRATGVPARFSGSGSGTDFTLTISSLEPEDFATYYCQQTNNAPVTFGQGTKVEIKR
In the experiment with FR3exFc [1], B7 displayed a koff of 0.0014 s⁻¹. Moreover, the Kd with FR3exFc [2] is 0.006 µM; in experiment [3], 0.0004 µM; in the experiment with FR3exFc [7], 0.006 µM; with FR1exFc [8], 0.029 µM; in [9], less than 0.001 µM. Also, the “IC50 FR3 (FGF9)” value in experiment [4] was found to be 0.02 µM. Moreover, in experiment [13], the “amount of Fab that inhibits FGFR3 activation (JNK signaling) in RCJ-FR3 cells” value was less than 5 µg. For the same molecule, the binding result with hFR3^D2Fc is reported as “no binding”.

B8: iodinated MSPRO29 (Fab, V domains shown)
VH: B7 VH
VL: B7 VL
modifications: iodinated with IodoGen (cold NaI at 0.04 mM or 1 mM, or 125I); sites not stated
notes: MSPRO29 Fab after iodination; which preparation (low I, high I, 125I) is told in each row; also called modified MSPRO29 (low I; high I)
Consider B8, for which the binding result with FR3exFc [17] is given as “binds”.

The record behind these values is patent US20090202547A1 (FIBRON, published 2009).
